Reference: publication PMC5224236 (ACS Chemical Biology, 2016)
Like-named read-outs stand apart in the source and are kept apart here.

Columns and labels:
Test in all cases: SPR
[1] = biological target: full-length p97 A232E (MSP1 mutant) (UniProt P55072 1-806, A232E)
[2] = biological target: T1, full-length wild-type p97/VCP (UniProt P55072 1-806)
[3] = biological target: full-length p97 R155H (MSP1 mutant) (UniProt P55072 1-806, R155H)
[4] = biological target: T1, full-length wild-type p97/VCP; remark: listed apart in the source
[5] = biological target: T1, full-length wild-type p97/VCP; remark: listed apart in the source

T1 sequence (P55072 whole entry): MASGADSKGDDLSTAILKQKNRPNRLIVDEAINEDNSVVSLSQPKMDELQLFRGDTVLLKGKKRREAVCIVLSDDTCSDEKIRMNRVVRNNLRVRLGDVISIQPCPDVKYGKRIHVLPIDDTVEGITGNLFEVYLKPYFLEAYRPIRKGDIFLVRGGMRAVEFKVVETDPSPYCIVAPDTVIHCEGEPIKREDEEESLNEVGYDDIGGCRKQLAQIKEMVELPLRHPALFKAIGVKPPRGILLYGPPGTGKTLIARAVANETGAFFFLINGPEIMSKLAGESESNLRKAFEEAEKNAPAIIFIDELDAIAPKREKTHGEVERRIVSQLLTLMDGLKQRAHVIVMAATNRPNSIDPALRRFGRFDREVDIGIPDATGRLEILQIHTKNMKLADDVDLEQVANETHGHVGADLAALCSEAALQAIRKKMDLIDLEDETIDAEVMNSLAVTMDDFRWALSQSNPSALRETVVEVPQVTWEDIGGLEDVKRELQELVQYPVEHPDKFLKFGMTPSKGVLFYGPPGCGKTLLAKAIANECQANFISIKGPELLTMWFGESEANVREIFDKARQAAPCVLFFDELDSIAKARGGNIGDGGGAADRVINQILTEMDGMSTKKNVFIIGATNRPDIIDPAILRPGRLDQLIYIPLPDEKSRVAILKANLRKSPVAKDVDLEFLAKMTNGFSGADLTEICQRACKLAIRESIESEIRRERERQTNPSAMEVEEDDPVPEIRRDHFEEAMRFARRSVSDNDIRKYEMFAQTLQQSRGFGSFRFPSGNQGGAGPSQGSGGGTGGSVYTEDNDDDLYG
Chain of full-length p97 A232E (MSP1 mutant) (P55072 whole entry A232E): as the sequence (P55072 whole entry) above, with A232E counted along it
Chain of full-length p97 R155H (MSP1 mutant) (P55072 whole entry R155H): as the sequence (P55072 whole entry) above, with R155H counted along it

B1: full-length human p47 (natural protein, UniProt Q9UNZ2 1-370, looked up)
chain: MAAERQEALREFVAVTGAEEDRARFFLESAGWDLQIALASFYEDGGDEDIVTISQATPSSVSRGTAPSDNRVTSFRDLIHDQDEDEEEEEGQRFYAGGSERSGQQIVGPPRKKSPNELVDDLFKGAKEHGAVAVERVTKSPGETSKPRPFAGGGYRLGAAPEEESAYVAGEKRQHSSQDVHVVLKLWKSGFSLDNGELRSYQDPSNAQFLESIRRGEVPAELRRLAHGGQVNLDMEDHRDEDFVKPKGAFKAFTGEGQKLGSTAPQVLSTSSPAQQAENEAKASSSILIDESEPTTNIQIRLADGGRLVQKFNHSHRISDIRLFIVDARPAMAATSFILMTTFPNKELADESQTLKEANLLNAVIVQRLT
How did the “KD, high-affinity site (two-site fit)” value [1] turn out when B1 was run?
The value was 21 nM.

What about the “KD, high-affinity site (two-site fit)” value [2] of the same binder?
The value was 184 nM.

What about the “KD, high-affinity site (two-site fit)” value [3] of the same binder?
The value was 18 nM.

B2: p37 (natural protein, human, UniProt Q14CS0 1-331, looked up)
chain: MAEGGGPEPGEQERRSSGPRPPSARDLQLALAELYEDEVKCKSSKSNRPKATVFKSPRTPPQRFYSSEHEYSGLNIVRPSTGKIVNELFKEAREHGAVPLNEATRASGDDKSKSFTGGGYRLGSSFCKRSEYIYGENQLQDVQILLKLWSNGFSLDDGELRPYNEPTNAQFLESVKRGEIPLELQRLVHGGQVNLDMEDHQDQEYIKPRLRFKAFSGEGQKLGSLTPEIVSTPSSPEEEDKSILNAVVLIDDSVPTTKIQIRLADGSRLIQRFNSTHRILDVRNFIVQSRPEFAALDFILVTSFPNKELTDESLTLLEADILNTVLLQQLK
For B2, which Kd [4] is on record?
The Kd was 46 nM.

What about the Kd [2] of the same binder?
The Kd was 372 nM.

What about the Kd [5] of the same binder?
Its Kd is 19 nM.
